These results are taken from patent US10143747B2, “Breast cancer therapeutics” (IMBA—INSTITUT FÜR MOLEKULARE BIOTECHNOLOGIE GMBH, priority 2010, dated 2018).

The test system of the assay is primary mouse mammary epithelial cells. The assay can be described thus: DNA damage responses (cell cycle arrest, apoptosis) in primary mouse mammary epithelial cells. The class given is cell-based. The following applies: RANKL 1 μg/ml. The method, then:
a, Western Blot analysis for γH2AX, phosphorylated (P) Chk1, total Chk1, p53 and β-actin in isolated primary mouse mammary gland epithelial cells in response to γ-irradiation (2 Gray) in the presence (1 μg/ml) or absence of RANKL stimulation. b,c, FACS analysis of propidium iodide (PI) stained b, mammary epithelial cells and c, SKBR3 human breast cancer cells after γ-irradiation (2 Gray) in the absence or presence (1 μg/ml) of RANKL. Data are representative of at least 3 experiments. Apoptotic cells with a DNA content <2n appear in the sub-G1 region. Percent of cells in sub-G1 (M1), G1-phase (M2), S/G2/M-phase (M3) as well as polyploid cells with a DNA content >4n are given for the indicated time points.
a,b, FACS analysis of a, mammary epithelial cells and b, SKBR3 human breast cancer cells incubated with the genotoxic agent doxorubicin (Dox, 1 μM) in the presence (1 μg/ml) or absence of RANKL. Data are representative of at least 3 experiments. Percent of cells in sub-G1 (M1), G1-phase (M2), S/G2/M-phase (M3) as well as polyploid cells with a DNA content >4n are given for 24 and 36 hours after doxorubicin treatment. c, mRNA expression of pro-apoptotic genes Bim, Puma, and Noxa 6 hours after γ-irradiation (2 Gray) in the presence (1 μg/ml) or absence of RANKL stimulation. Data are shown as fold change compared to control (+/−sem). n=3). *P<0.05; **P<0.005 (Student's t-test).
For measurement of cell cycle arrest and apoptosis primary mouse mammary epithelial cells and SKBR3 human breast cancer cells were seeded at a cell-density of 100000 cells/well in a 6-well plate and allowed to grow for 24 hours. Cells where then treated with doxorubicin (1 μM) or γ-irradiation (2 Gray) in the absence or presence of recombinant RANKL (1 μg/ml). Cell cycle arrest and numbers of dead cells were determined using propidium iodine staining. To determine in vivo mammary gland epithelial cell death, control and RANK^Δmam littermate females were γ-irradiated with a total dose of 5 Gray (Gy). Six hours later, mammary glands were isolated and immunostained for active Caspase 3 (Cell Signaling) indicative of apoptosis.

B1: RANKL: recombinant RANKL protein, ligand of RANK, used as stimulus (1 μg/ml or 1 μg i.p.) (protein, UniProt O35235 139-316, looked up)
Tumor necrosis factor ligand …: FSGAPAMMEGSWLDVAQRGKPEAQPFAHLTINAASIPSGSHKVTLSSWYHDRGWAKISNMTLSNGKLRVNQDGFYYLYANICFRHHETSGSVPTDYLQLMVYVVKTSIKIPSSHNLMKGGSTKNWSGNSEFHFYSINVGGFFKLRAGEEISIQVSNPSLLDPDQDATYFGAFKVQDID
In the case of B1, the “γ-irradiation-induced upregulation of proapoptotic Bim, Puma and Noxa mRNA” value (6 hours after γ-irradiation 2 Gray, cell type not stated) is “did not occur in the presence of RANKL”. Moreover, for the setting “doxorubicin 1 μM”, the “early cell cycle arrest after DNA damage” value is “did not alter the early cell cycle arrest” and the “protection from cell death” value was “marked protection from cell death”. Further, where the note is “γ-irradiation 2 Gray”, the “early cell cycle arrest after DNA damage” value was “did not alter the early cell cycle arrest”; the “induction of γH2AX and p53, activation of Chk1 (DNA damage response markers)” value was “did not alter induction of γH2AX and p53 or activation of Chk1”; the “protection from cell death” value was “marked protection from cell death”.
